Reference: US20240401101A1, “A LIVE CELL ASSAY TO DETERMINE PERMEABILITY OF TEST MOLECULES TO AND/OR WITHIN THE PEPTIDOGLYCAN SCAFFOLD OF BACTERIA CELLS” (priority 2021, published 2024)

System: S. aureus (ATCC 25923)
Test: Enzymatic degradation of fluorescently labeled whole cells (mutanolysin / proteinase K), incl. BONCAT control
Format: cell-based, Staphylococcus aureus

B1: proteinase K: promiscuous protease (protein, UniProt P06873 106-384, looked up)
Proteinase K: AAQTNAPWGLARISSTSPGTSTYYYDESAGQGSCVYVIDTGIEASHPEFEGRAQMVKTYYYSSRDGNGHGTHCAGTVGSRTYGVAKKTQLFGVKVLDDNGSGQYSTIIAGMDFVASDKNNRNCPKGVVASLSLGGGYSSSVNSAAARLQSSGVMVAVAAGNNNADARNYSPASEPSVCTVGASDRYDRRSSFSNYGSVLDIFGPGTSILSTWIGGSTRSISGTSMATPHVAGLAAYLMTLGKTTAASACRYIADTANKGDLSNIPFGTVNLLAYNNYQA
For B1, the “cellular fluorescence of D-cystine/Mal-Fl labeled cells during enzyme treatment” value (50 μg/mL mutanolysin or 500 μg/mL proteinase K, mutanolysin read at 120 minutes) was “remained mostly unchanged” and the “cellular fluorescence of L-azidohomoalanine/DBCO-Fl labeled cells after enzyme treatment” value (BONCAT, 1 mM AHA, 25 μM DBCO-Fl) was “significant decrease”.
